In the supplement of paper PMC9732359:
± gives the uncertainty stated by the source.

Experiment: protein stability index of a GFP-peptide fusion (yeast GPS) (PSI 1-4); higher = more stable; sorted into four equal gates, so the index is relative within each strain
Procedure, shortened: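 Tiled yeast protein peptides of 17 residues were each joined downstream of GFP, on plasmids that also express Cherry. The pooled library was maintained in yeast, and mid-log cultures in leucine-free medium were sorted into four equal gates on the GFP/Cherry ratio. Plasmids from every gate were amplified by PCR and sequenced on Illumina, with barcodes linking reads to strains. The protein stability index of a peptide is its gate-number-weighted read frequency summed over the gates.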

Row | Sequence | protein stability index (doa10∆) | protein stability index (pdr5∆) | protein stability index (san1∆) | protein stability index (ubr1∆)
1 | PGTIVLYAERVQDRGLS [RPS3] | 2.87 ± 0.06 | 2.99 ± 0.056 | 2.62 ± 0.085 | 3.17 ± 0.041
2 | DDVVVLTGEAEIEQPVT [FAS1] | 3.47 ± 0.12 | 3.27 ± 0.12 | 2.85 ± 0.13 | 2.98 ± 0.099
3 | DDFLSKKRKAGRPRGRP [SNF2] | 3.25 ± 0.3 | 3.1 ± 0.12 | 2.96 ± 0.2 | 2.89 ± 0.1
4 | ASPHASVRTAVFSALKN [ECM29] | 1.56 ± 0.051 | 1.58 ± 0.05 | 1.25 ± 0.083 | 1.42 ± 0.056
5 | MKIQAGQLGLDDNDVPG [YLR018C/POM34] | 3.22 ± 0.19 | 3 ± 0.14 | 2.5 ± 0.21 | 3.11 ± 0.29
6 | QAEATEWAEENADNVEW [RPS0A] | 2.18 ± 0.11 | 1.8 ± 0.11 | 2.27 ± 0.083 | 2.41 ± 0.066
7 | DNEVQRTMLELITQLDG [RPT1] | 2.55 ± 0.12 | 3.21 ± 0.12 | 2.79 ± 0.14 | 2.67 ± 0.15
8 | FKQIKSADCELLGIDAT [RPO31] | 1.62 ± 0.083 | 1.8 ± 0.089 | 1.42 ± 0.16 | 2.08 ± 0.053
9 | SVKESTGMSSMSPFLRK [SRB4] | 3.42 ± 0.14 | 2.6 ± 0.23 | 2.1 ± 0.25 | 3.15 ± 0.079
10 | TELVDGRENFVYANNPE [SIR3] | 3.15 ± 0.1 | 3.33 ± 0.11 | 3.05 ± 0.13 | 2.95 ± 0.083
11 | ILTGTPLQNNLPELWAL [SNF2] | 2.24 ± 0.05 | 2.4 ± 0.044 | 2.15 ± 0.055 | 2.3 ± 0.043
12 | PRIQRADPVALYLGLKR [RPB5] | 1.82 ± 0.11 | 2.42 ± 0.1 |  | 2.28 ± 0.083
13 | SLKCTDPYELKGEVVLV [ITC1] | 2.59 ± 0.2 | 3.1 ± 0.24 | 2.44 ± 0.2 | 2.96 ± 0.13
14 | TAMKKVEDGNILVFQVS [RPL25] | 2.53 ± 0.049 | 2.48 ± 0.056 | 2.48 ± 0.052 | 2.8 ± 0.044
15 | AAGYGKILGKGRIPNVP [RPL28] | 3.46 ± 0.087 | 3.2 ± 0.075 | 3.46 ± 0.066 | 3.48 ± 0.05
16 | KPMNKGQHKNNTSLNIN [SWP82] | 2.92 ± 0.092 | 2.84 ± 0.091 | 2.91 ± 0.066 | 2.98 ± 0.059
17 | SQPTAAGGPDMTTPQNI [DSN1] | 1.82 ± 0.065 | 1.9 ± 0.063 | 1.89 ± 0.1 | 1.36 ± 0.053
18 | IDESMPDTAIDSQMDEA [GRR1] | 3.01 ± 0.093 | 3.08 ± 0.08 | 2.85 ± 0.078 | 3.06 ± 0.059
19 | ITSIPKPLTENCKKKKK [RMP1] | 2.84 ± 0.12 | 2.75 ± 0.12 | 2.05 ± 0.085 | 2.99 ± 0.095
20 | LLREFKKLDDKPSLVDV [RPN6] |  | 3.44 ± 0.25 | 3.27 ± 0.26 | 
21 | MEERDGAKFENIVHNFK [AAR2] | 3.09 ± 0.1 | 2.51 ± 0.097 | 2.41 ± 0.12 | 1.88 ± 0.056
22 | TPYNADFDGDEMNLHVP [RPO31] | 2.83 ± 0.087 | 3.35 ± 0.085 | 3.07 ± 0.075 | 3.21 ± 0.062
23 | NNQSKEKADYEDEMMHE [RPN12] | 2.63 ± 0.074 | 2.7 ± 0.06 | 2.67 ± 0.095 | 2.53 ± 0.052
24 | FTNGVLAVTNLLIISCI [YML031W/NDC1] | 1.89 ± 0.18 | 1.85 ± 0.17 | 1.79 ± 0.14 | 
25 | SRNFSTRDEETTKLAFL [SIR4] | 3.04 ± 0.065 | 3.09 ± 0.055 | 3.03 ± 0.04 | 2.97 ± 0.038
26 | SASFSLKNGDKPHMLKF [RPL6A] | 2.81 ± 0.083 | 1.84 ± 0.055 | 2.89 ± 0.06 | 3.13 ± 0.033
27 | RNLQMGLRNQNMVRNNN [GRR1] | 2.62 ± 0.088 | 2.72 ± 0.093 | 2.63 ± 0.063 | 2.54 ± 0.055

Row | Sequence | protein stability index (doa10∆) | protein stability index (pdr5∆) | protein stability index (san1∆) | protein stability index (ubr1∆)
28 | NVLVTMPVAPTMEVKSF [YMR129W/POM152] | 1.54 ± 0.068 | 1.62 ± 0.11 | 1.95 ± 0.11 | 1.46 ± 0.068
29 | SEKNKRQSKSSGKSNTS [ITC1] | 3.06 ± 0.094 | 3.31 ± 0.071 | 2.98 ± 0.073 | 3.16 ± 0.1
30 | LSCQYDNTVRTSANGIV [RPO31] | 1.32 ± 0.19 | 1.26 ± 0.14 |  | 
31 | ILLSHHRASPADVSIKS [POP5] | 2.79 ± 0.24 | 3.4 ± 0.18 | 3.24 ± 0.062 | 
32 | LGTIESAQAETEALLLE [DIS3] | 2.92 ± 0.1 | 3.09 ± 0.092 | 3.18 ± 0.097 | 2.82 ± 0.062
33 | PTRMVRVAKGSGTSVFE [SRP54] | 2.94 ± 0.29 |  |  | 
34 | LLVERLKEDDSSLYEAS [RPN1] | 3.22 ± 0.12 | 3.38 ± 0.12 | 3.06 ± 0.1 | 3.16 ± 0.18
35 | CEAAVEISKKDFVRKGG [SIR3] | 3.19 ± 0.11 | 2.9 ± 0.065 | 3.22 ± 0.068 | 3.25 ± 0.064
36 | ILGIHTSKMNLSEDVNL [RPT2] | 3.03 ± 0.12 | 3.16 ± 0.081 | 3 ± 0.13 | 3.14 ± 0.067
37 | LFMKSLIENCKKRNMPL [SWI1] | 2.68 ± 0.053 | 2.72 ± 0.068 | 2.83 ± 0.045 | 2.82 ± 0.042
38 | AAPSGNYKQLTLVGGGA [RRP43] | 1.36 ± 0.093 | 2.33 ± 0.07 | 2.23 ± 0.13 | 2.5 ± 0.079
39 | NKLEKLNSLLTYIKSEI [SMC4] | 2.73 ± 0.061 | 2.32 ± 0.045 | 2.66 ± 0.057 | 2.87 ± 0.036
40 | QNQGGAQAPFDIDDLAF [ROX3] | 3.55 ± 0.13 |  | 3.4 ± 0.11 | 3.37 ± 0.065
41 | AGADRLQQGMRGAWGKP [RPL10] | 3.41 ± 0.12 | 3.25 ± 0.13 | 2.95 ± 0.12 | 3.31 ± 0.086
42 | KMFIQRILAMCVKNHGQ [YCS4] | 1.69 ± 0.062 | 2.1 ± 0.055 | 2.22 ± 0.071 | 1.92 ± 0.057
43 | QVRKDLGNVIVPNILSL [NUT1] | 2.23 ± 0.1 | 2.55 ± 0.088 | 2.46 ± 0.093 | 2.62 ± 0.07
44 | DLVLQILEDTATMSVFL [RRI2] | 2.86 ± 0.063 | 2.36 ± 0.055 | 2.98 ± 0.054 | 2.71 ± 0.038
45 | GYRSRTRYMFQRDFRKH [RPL21A] | 3.16 ± 0.07 | 3.19 ± 0.08 | 3.16 ± 0.049 | 3.3 ± 0.049
46 | ARQRGKLKKSEEKVLST [SRP68] | 3.28 ± 0.19 | 3.21 ± 0.11 | 3.33 ± 0.071 | 3.67 ± 0.21
47 | MSAVPSVQTFGKKKSAT [RPS16A] | 1.45 ± 0.1 | 1.32 ± 0.15 | 1.26 ± 0.26 | 1.22 ± 0.13
48 | SLLPYYHLTKAVKLGDL [RPN3] | 2.21 ± 0.052 | 1.74 ± 0.052 | 1.72 ± 0.073 | 1.78 ± 0.066
49 | FQEGVVVAKKDFNQAKH [RPS10A] | 2.1 ± 0.27 | 2.92 ± 0.27 | 2.91 ± 0.16 | 2.79 ± 0.12
50 | YGLIRGLKFASFIFQYY [PRP8] | 2.23 ± 0.11 | 2.52 ± 0.13 | 2.02 ± 0.093 | 2.36 ± 0.085
51 | RSRYRREIDALKKQLHV [YIL149C/MLP2] | 3.24 ± 0.074 | 3.16 ± 0.05 | 3.23 ± 0.045 | 3.2 ± 0.036
52 | QSNEDTFLPSYMKFSNK [RRI2] | 2.84 ± 0.063 | 3.05 ± 0.063 | 3.17 ± 0.052 | 3.18 ± 0.048
53 | EEKQKSYKFPRGTTAVL [PUP1] | 3.37 ± 0.12 | 3.11 ± 0.13 | 3.14 ± 0.099 | 2.91 ± 0.088
54 | QDKDAIRKQPDDIINND [SIR2] | 2.48 ± 0.089 | 2.63 ± 0.049 | 2.82 ± 0.078 | 2.89 ± 0.061
